Source: US20120023600A1 (Novartis, published 2012)

T1: cynomolgus DKK1 (cynomolgus monkey (Macaca fascicularis), UniProt A0A7N9IE82 32-266)
T1 construct: also called cyno DKK1; monkey DKK1 (Novartis)
T1 sequence: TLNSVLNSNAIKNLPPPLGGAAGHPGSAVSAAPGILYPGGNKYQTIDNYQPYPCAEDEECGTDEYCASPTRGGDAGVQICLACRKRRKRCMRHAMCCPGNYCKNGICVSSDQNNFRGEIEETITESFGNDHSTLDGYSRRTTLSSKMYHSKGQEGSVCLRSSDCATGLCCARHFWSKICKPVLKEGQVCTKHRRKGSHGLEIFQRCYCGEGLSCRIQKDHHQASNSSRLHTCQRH

T2: recombinant human DKK1 (human, UniProt O94907 32-266)
T2 construct: also called Dickkopf-1; rhDKK1
T2 sequence: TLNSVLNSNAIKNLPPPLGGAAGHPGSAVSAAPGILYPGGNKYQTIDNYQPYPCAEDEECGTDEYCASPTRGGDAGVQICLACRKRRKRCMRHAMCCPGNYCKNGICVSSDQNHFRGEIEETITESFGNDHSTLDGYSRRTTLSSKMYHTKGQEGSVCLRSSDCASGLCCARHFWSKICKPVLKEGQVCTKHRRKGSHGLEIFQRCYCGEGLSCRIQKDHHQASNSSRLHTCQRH

T3: mouse DKK1 (R&D Systems) (mouse, UniProt O54908 32-272)
T3 construct: Bought protein
T3 sequence (looked up): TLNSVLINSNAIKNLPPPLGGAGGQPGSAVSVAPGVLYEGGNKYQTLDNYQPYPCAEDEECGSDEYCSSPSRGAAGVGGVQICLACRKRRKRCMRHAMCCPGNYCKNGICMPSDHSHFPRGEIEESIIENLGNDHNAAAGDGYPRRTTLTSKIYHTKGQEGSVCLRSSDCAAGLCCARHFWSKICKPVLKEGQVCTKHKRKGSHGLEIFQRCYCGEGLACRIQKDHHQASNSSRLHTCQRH

T4: DKK1-APP (human, UniProt O94907 32-266)
T4 sequence: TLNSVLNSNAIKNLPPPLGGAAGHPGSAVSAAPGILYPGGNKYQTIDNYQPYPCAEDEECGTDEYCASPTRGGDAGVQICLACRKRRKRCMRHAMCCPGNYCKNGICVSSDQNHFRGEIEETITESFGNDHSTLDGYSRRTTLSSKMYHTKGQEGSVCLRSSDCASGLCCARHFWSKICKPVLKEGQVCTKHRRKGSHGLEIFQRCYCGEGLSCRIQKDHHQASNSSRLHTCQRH

T5: biotinylated human DKK1 (human, UniProt O94907 32-266, biotinylated (sites not given))
T5 construct: also called biotinylated DKK1; human recombinant, biotinylated DKK1
T5 sequence: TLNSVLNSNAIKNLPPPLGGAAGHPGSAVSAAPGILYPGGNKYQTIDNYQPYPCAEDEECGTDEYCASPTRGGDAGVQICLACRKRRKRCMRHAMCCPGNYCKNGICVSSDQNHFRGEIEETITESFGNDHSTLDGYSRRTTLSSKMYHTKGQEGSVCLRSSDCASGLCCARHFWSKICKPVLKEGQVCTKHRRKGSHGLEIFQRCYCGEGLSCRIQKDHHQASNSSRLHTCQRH


Tests used:
[1] = biological target: T1, cynomolgus DKK1; test: solution equilibrium titration (SET), ECL (BioVeris), Fab
Description: (§1) Electrochemiluminescence (ECL) based affinity determination in solution and data evaluation are basically performed as described by Haenel et al., 2005. […] Subsequently, the concentration of unbound Fab is quantified by ECL detection using the M-SERIES® 384 analyzer (BioVeris Europe).
(§2) Affinities are calculated according to Haenel et al., 2005 Anal Biochem 339.1:182-184.

[2] = biological target: T2, recombinant human DKK1; test: as above
Description: as §1, §2

[3] = biological target: T3, mouse DKK1 (R&D Systems); test: as above
Description: as §1, §2

[4] = biological target: T4, DKK1-APP; test: cell-based or functional assay
[5] = biological target: T5, biotinylated human DKK1; test: ELISA, biotinylated DKK1 on Neutravidin plates, Fab 1 ug/ml, anti-FLAG-AP detection
Description: Binding specificity of the matured Fabs in the presence of 50% human serum (HS) is determined. […] After coating of the antigen, wells are blocked with TBS/0.05% Tween (TBS-T) supplemented with 1% BSA for 1 h at room temperature. Purified Fabs described above are diluted either in TBS/4% BSA or TBS/50% HS at a final concentration of 1 μg/ml, added to the coated and blocked wells and the plates are incubated for 1 h at room temperature. For detection, an anti-FLAG alkaline phosphatase (AP)-conjugated antibody (1:5000 dilution in TBST) and the fluorogenic substrate AttoPhos (Roche) are used. After each incubation, the wells of the microtiter plates are washed with TBST five times, except after the final incubation step with the labeled secondary antibody when wells are washed three times.
The fluorescence is measured in a TECAN Spectrafluor plate reader.

[6] = biological target: T2, recombinant human DKK1; test: cell-based or functional assay
[7] = biological target: T4, DKK1-APP; test: cell-based or functional assay; remark: listed apart in the source
[8] = biological target: T1, cynomolgus DKK1; test: SPR (Biacore), DKK1 immobilised on CM5 chip, Fab as analyte
Description: (§3) Using these clones, kinetic SPR analysis is performed on a. […] The Fab preparations are applied in concentration series of 16-500 nM at a flow rate of 20 μl/min. Association phase is set to 60 s and dissociation phase to 120 s.

[9] = biological target: T2, recombinant human DKK1; test: as above
Description: as §3

[10] = biological target: T3, mouse DKK1 (R&D Systems); test: as above
Description: as §3

[11] = biological target: T4, DKK1-APP; test: cell-based or functional assay; remark: listed apart in the source
[12] = biological target: T1, cynomolgus DKK1; test: SPR (Biacore), DKK1 immobilised on CM5 chip, Fab as analyte; remark: listed apart in the source
Description: as §3

[13] = biological target: T2, recombinant human DKK1; test: as above; remark: listed apart in the source
Description: as §3

[14] = biological target: T3, mouse DKK1 (R&D Systems); test: as above; remark: listed apart in the source
Description: as §3

[15] = biological target: T1, cynomolgus DKK1; test: as above; remark: listed apart in the source
Description: as §3

[16] = biological target: T2, recombinant human DKK1; test: as above; remark: listed apart in the source
Description: as §3

[17] = biological target: T3, mouse DKK1 (R&D Systems); test: as above; remark: listed apart in the source
Description: as §3

Row | Binder | Kd [1] | Kd [2] | Kd [3] | Luciferase reporter assay w/o Kremen; Activity in 15% Human serum (%) [4] | Binding activity w/50% Human serum vs 4% BSA (%) [5] | TCF/LEF luc assay w/Kremen: EC50 [6] | EC50 [7] | Kd [8] | Kd [9] | Kd [10] | Luciferase reporter assay; EC50 [11] | Kd [12] | Kd [13] | Kd [14] | Kd [15] | Kd [16] | Kd [17]
1 | MOR04946 (Fab, V domains shown) VH: QVQLVESGGGLVQPGGSLRLSCAASGFTFNNYGMTWVRQAPGKGLEWVSGISGSGSYTYYADSVKGRFTISRDNSKNTLYLQMNSLRAEDTAVYYCARTIYMDYWGQGTLVTVSS VL: DIVLTQSPATLSLSPGERATLSCRASQNLFSPYLAWYQQKPGQAPRLLIYGASNRATGVPARFSGSGSGTDFTLTISSLEPEDFAVYYCQQYLTLPLTFGQGTKVEIKR | 36 pM | 25 pM | 41 pM | 60% | 93% | 200 pM | – | – | – | – | – | – | – | – | – | – | –
2 | MOR04952 (Fab, V domains shown) VH: QVQLVESGGGLVQPGGSLRLSCAASGFTFSSYWMSWVRQAPGKGLEWVSVISSDSSSTYYADSVKGRFTISRDNSKNTLYLQMNSLRAEDTAVYYCARHGIDFDHWGQGTLVTVSS VL: DIALTQPASVSGSPGQSITISCTGTSSDLGGYNYVSWYQQHPGKAPKLMIYDVNNRPSGVSNRFSGSKSGNTASLTISGLQAEDEADYYCQSYDSPTDSVVFGGGTKLTVLG | 58 pM | 100 pM | 71 pM | 60% | 100% | 600 pM | – | – | – | – | – | – | – | – | – | – | –
3 | MOR04910 (Fab, V domains shown, also called anti-DKK1 FAb MOR04910) VH: QVQLVESGGGLVQPGGSLRLSCAASGFTFSSYWMSWVRQAPGKGLEWVSGISYSGSNTHYADSVKGRFTISRDNSKNTLYLQMNSLRAEDTAVYYCARMGIDLDYWGQGTLVTVSS VL: DIALTQPASVSGSPGQSITISCTGTSSDVGGFNYVSWYQQHPGKAPKLMIHDGSNRPSGVSNRFSGSKSGNTASLTISGLQAEDEADYYCQSWDVSPITAVFGGGTKLTVLG | 37 pM | 24 pM | 42 pM | 90% | 84% | 300 pM | – | – | – | – | – | – | – | – | – | – | –
4 | MOR04470 (Fab, V domains shown, Fab with C-terminal FLAG and 6xHis tags) VH: QVQLVESGGGLVQPGGSLRLSCAASGFTFSSYWMSWVRQAPGKGLEWVSVISSDSSSTYYADSVKGRFTISRDNSKNTLYLQMNSLRAEDTAVYYCARHGIDFDHWGQGTLVTVSS VL: DIALTQPASVSGSPGQSITISCTGTSSDLGGYNYVSWYQQHPGKAPKLMIYDVNNRPSGVSNRFSGSKSGNTASLTISGLQAEDEADYYCQSYASGNTKVVFGGGTKLTVLG | – | – | – | – | – | – | 58000 pM | 1700 pM | 3200 pM | 3600 pM | 58000 pM | 1700 pM | 3200 pM | 3600 pM | 1700 pM | 3200 pM | 3600 pM

More lines, now with the values ahead:

Row | Kd [1] | Kd [2] | Kd [3] | Luciferase reporter assay w/o Kremen; Activity in 15% Human serum (%) [4] | Binding activity w/50% Human serum vs 4% BSA (%) [5] | TCF/LEF luc assay w/Kremen: EC50 [6] | EC50 [7] | Kd [8] | Kd [9] | Kd [10] | Luciferase reporter assay; EC50 [11] | Kd [12] | Kd [13] | Kd [14] | Kd [15] | Kd [16] | Kd [17] | Binder
5 | 51 pM | 38 pM | 44 pM | 88% | 89% | 500 pM | – | – | – | – | – | – | – | – | – | – | – | MOR04913 (Fab, V domains shown) VH: QVQLVESGGGLVQPGGSLRLSCAASGFTFNNYGMTWVRQAPGKGLEWVSGISGSGSYTYYADSVKGRFTISRDNSKNTLYLQMNSLRAEDTAVYYCARTIYMDYWGQGTLVTVSS VL: DIVLTQSPATLSLSPGERATLSCRASQNLFSPYLAWYQQKPGQAPRLLIYGASNRATGVPARFSGSGSGTDFTLTISSLEPEDFAVYYCQQYMTLPLTFGQGTKVEINR
6 | 50 pM | 53 pM | 40 pM | 75% | 90% | 1800 pM | – | – | – | – | – | – | – | – | – | – | – | MOR04920 (Fab, V domains shown) VH: QVQLVESGGGLVQPGGSLRLSCAASGFTFSSYWMSWVRQAPGKGLEWVSSIEHKDAGYTTWYAAGVKGRFTISRDNSKNTLYLQMNSLRAEDTAVYYCARHGIDFDHWGQGTLVTVSS VL: DIALTQPASVSGSPGQSITISCTGTSSDLGGYNYVSWYQQHPGKAPKLMIYDVNNRPSGVSNRFSGSKSGNTASLTISGLQAEDEADYYCQSYASGNTKVVFGGGTKLTVLG
7 | 80 pM | 69 pM | 74 pM | 74% | 89% | 500 pM | – | – | – | – | – | – | – | – | – | – | – | MOR04945 (Fab, V domains shown) VH: QVQLVESGGGLVQPGGSLRLSCAASGFTFSSYWMSWVRQAPGKGLEWVSVISSDSSSTYYADSVKGRFTISRDNSKNTLYLQMNSLRAEDTAVYYCARHGIDFDHWGQGTLVTVSS VL: DIALTQPASVSGSPGQSITISCTGTSSDLGGYNYVSWYQQHPGKAPKLMIYDVNNRPSGVSNRFSGSKSGNTASLTISGLQAEDEADYYCQTYDQIKLSAVFGGGTKLTVLG
8 | 67 pM | 57 pM | 65 pM | 70% | 100% | 500 pM | – | – | – | – | – | – | – | – | – | – | – | MOR04948 (Fab, V domains shown) VH: QVQLVESGGGLVQPGGSLRLSCAASGFTFSSYWMSWVRQAPGKGLEWVSGISYSGSNTHYADSVKGRFTISRDNSKNTLYLQMNSLRAEDTAVYYCARMGIDLDYWGQGTLVTVSS VL: DIALTQPASVSGSPGQSITISCTGTSSDVGGFNYVSWYQQHPGKAPKLMIHDGSNRPSGVSNRFSGSKSGNTASLTISGLQAEDEADYYCQTWDSLSFFVFGGGTKLTVLG
9 | 58 pM | 32 pM | 30 pM | – | – | 1700 pM | – | – | – | – | – | – | – | – | – | – | – | MOR04947 (Fab, V domains shown) VH: QVQLVQSGAEVKKPGESLKISCKGSGYSFTNYYIGWVRQMPGKGLEWMGIIVPGTSYTIYSPSFQGQVTISADKSISTAYLQWSSLKASDTAMYYCARGIPFRMRGFDYWGQGTLVTVSS VL: DIVLTQPPSVSGAPGQRVTISCSGSSSNIGSSFVNWYQQLPGTAPKLLIGNNSNRPSGVPDRFSGSKSGTSASLAITGLQSEDEADYYCASFDMGSPNVVFGGGTKLTVLG
